{"source": "paper PMC7595419", "biological_target": "SicA-His6 (Salmonella enterica serovar Typhimurium) (UniProt P69066)", "sequence (P69066 whole entry)": "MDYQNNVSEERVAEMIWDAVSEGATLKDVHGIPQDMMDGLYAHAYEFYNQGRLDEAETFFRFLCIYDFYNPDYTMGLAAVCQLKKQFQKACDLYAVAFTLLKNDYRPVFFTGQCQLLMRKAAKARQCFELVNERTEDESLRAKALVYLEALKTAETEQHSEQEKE", "assay": "EMSA"}
{"sequence": "ATAGGATCCCGTTGTATAAGGTTTTTTGTAGGCTTTTAAAAGCCTCCTGGGTTTTTAGTGAAGCTGAGTGATAGAAGCTCTGTATTTGCATAGCGTTTTTAATATTCCTGAATAGGGGAGTGGGAACATTCAACAGGGTTAACAACCCTTTAAAAGGATGTGACTTTTATGCACCAGGAACTTTAAAAAAATGTCCTTTTTAATGAGGAAACGCTTCTGATCAGGCGGGGAGGCATCCTGACGTCCATACGTAGTGGCGATCATGGGGGAGATCGGTACATCAAATGTCTAGATAT (double strand) [sopB regulatory region (-200 to +79)]", "values": [{"measurement": "binding", "value": "no binding"}]}
